We go through one protein from article PMC6181972, “Indoleacetate decarboxylase is a glycyl radical enzyme catalysing the formation of malodorant skatole” (Nature Communications, 2018).

Data set [1] concerns the molecule itself. As to the kind of experiment: SEC; size exclusion chromatography of purified recombinant OsIAD; column and buffer not told in the text shown (Supplementary Fig. 1c); dimer to monomers.
Substrate in the data set “purified protein”: O=C(O)Cc1c[nH]c2ccccc12
Briefly: purified protein. Particulars: activated with 100 nM OsIADAE, 1 mM SAM, 0.2 mM Ti(III) citrate, 20 mM Tris-HCl pH 7.5, 0.1 M KCl, 30 °C, anaerobic.

B1: Olsenella scatoligenes indoleacetate decarboxylase (OsIAD) (enzyme, UniProt A0A100YXA1 1-878, looked up)
chain: MQESLVLEMLQTGKTATWPANSGTQDGEGFVDKEVKGVPSTDRTKRMKERFMNAKCKMDMEAPIAYTKAWRMYEGKPLYVRRGLSYKYMLEHLTPVIRPDELITMSKTRYDRGATQVPQFATDFMISFLTQAEDQKDEAKLFSVEGKDEAHTVDEEGWTPVGQLFSIREEEVKPMLEVLEYWKTRCVENVSDEWMKTSFPMYQDYINAKKVGLFPGSGLHAGCDGRWIPAYDVVLGGLNKVIDECKKNIAKTVVTTKDVADKVFFWQGCIYACEGAIAWANNYAKEARRLAEITPEPRKTELLQMAERLERVPAEPPRNFMEAVQALWTAQILIISDSLALGVSPGRWGKLLEPYYEKDLADGVITKEQALEVMEMLRIKFSTEEYITPSLWAAMASSNSFMNLAVGGLDPKTGQCTDNELEDLILQAGINMPTPQPTLSMLLSNKTSDHLALKAAECTKAGNGYPAWFNYDMMVEHNLWCYADEGITMEDARNCALSGCVENGLAGTGHPIAHPAFYNEGKTIELALHEGVDPRTGIKVMDGIKPVESYEDVWNNFVKIREHFMRVYMRYWNEVVACQRDIHPKIMGSIFMHDCVENGRPVDNLGCRYNGSVTLLDSGTVNVVNGLAAMKKLIWEDHKYTYAEFKEAMDNNFGFVLGAEKGNFSMLNQEIDPEKHMKYAQIHRDILNCPKFGNDDDFVDDIFVKVWQDYDRVTGSETTYNGYRWITAALSISAHGPHGRVTGATPDGRLAGVTLCDGILSASPGTDVNGPIALIRSGVKLDPTTFASVQLNMKFHPSAIRGEEGSKNFVDFIRSYFNMGGYHVQFNIVDSKMLRDAQDKPQNYRDLMVRVAGFSAYWNELGKPIQDEVIARTEYDAL
notes: Indoleacetate decarboxylase (glycyl radical enzyme) of Olsenella scatoligenes, UniProt A0A100YXA1; codon-optimized synthetic gene in pET-28a-HT (His6-tag, TEV protease cleavage site, then the construct); also called HT-IAD; A0A100YXA1; source: E. coli BL21 (DE3), purified (TALON, ammonium sulfate precipitation, G25 desalting)
For the protein B1, the “stoichiometry N” value in data set [1] came to 2. Further, in “purified protein”, the Michaelis-Menten constant (Km) amounted to 370 ± 60 µM and the kcat was found to be 2.0 ± 0.1 s^–1.
